For the data set, the target named is hnRNPK (human, UniProt P61978 1-463). As to the kind of experiment: EMSA. In general terms: A gel shift assay detects complexes by their altered migration in electrophoresis.

GGGGCCGGGGCCGGGGCCGGGGCCGGGGCCGGGGCCGGGGCCGGGGCC (structured_DNA, 5-methylcytosine at each CpG) [d(GGGGCC)8 5mCpG]: the binding result is “no binding”.

Take GGGGCCGGGGCCGGGGCCGGGGCCGGGGCCGGGGCCGGGGCCGGGGCC (structured_DNA, 5-hydroxymethylcytosine at each CpG) [d(GGGGCC)8 5hmCpG]: the binding result is listed as “no binding”.

(Values after publication PMC4787773.)
